B1: ESRRG (parent)
chain: YSCPATNECEITKRRRKSCQACRF

Variants of: B1
Assay: protein stability index of a GFP-peptide fusion (GPS, HEK-293T) (PSI 1-6); higher = more stable
Conditions: c terminus: a fixed tail appended
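Also: lentivirally expressed fusions sorted by FACS into six bins by GFP to DsRed ratio, PSI derived from sequencing read proportions per bin multiplied by bin number.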

Protein stability index: each site, then its substitutions
Y1: M 4.2 | K 3.92 | P 4.32 | V 3.93 | Q 4.19 | H 3.8 | I 3.6 | C 4.88 | S 4.28 | G 4.02 | R 4.21 | A 4.13 | N 4.29
R23: V 2.46 | E 4.02 | T 3.01 | F 2.33 | W 2.09 | M 3.04 | S 3.22 | K 3.33 | P 3.7 | Q 3.69 | N 3.92 | H 2.96 | Y 3.3 | C 3.71 | D 3.88
P4: C 2.92 | A 3.03 | T 3.21 | K 3.18 | L 2.64 | Q 3.11 | F 2.39 | G 2.93 | R 3.09 | M 2.76 | E 3.2 | D 3.48 | N 3.24 | W 1.47 | I 2.53 | Y 2.59 | S 3.11
C22: H 3.5 | F 2.81 | Y 3.01 | A 3.47 | R 3.87 | S 3.9 | L 3.71 | G 3.38 | K 3.97 | M 2.9 | W 2.94 | N 4.09
F24: N 4.28 | G 4.18 | I 3.67 | P 3.51 | Q 3.7 | S 3.89 | M 3.89 | V 4 | W 2.88 | R 3.41 | Y 3.53 | H 4.18 | L 3.61 | D 4.07 | E 4.19 | K 4.41 | T 4.12
S18: Y 2.87 | A 3.58 | M 3.38 | I 3.16 | G 2.74 | H 3.48 | C 3.31 | Q 3.6 | R 3.8 | V 3.08 | D 3.6 | T 3.59 | N 3.44 | P 3.66 | W 2.93 | F 2.9 | K 3.51
K17: S 3 | E 3.63 | I 3.51 | T 2.92 | Y 2.35 | H 3.82 | V 2.97 | A 3.17 | Q 3.29 | L 3.06 | M 3.06 | D 3.37
T6: A 3.13 | P 2.2 | N 4.04 | Y 2.29 | I 3.31 | L 3.1 | H 3.65 | E 3.37 | M 3.38 | S 3.1 | K 3.72 | R 3.46 | G 3.65
T12: P 3.86 | A 3.32 | I 2.69 | Q 3.25 | E 3.75 | D 3.74 | W 2.31 | Y 2.69 | C 3.85 | S 3.46 | K 3.27 | R 3.56
Q20: S 3.02 | W 2.21 | F 1.91 | H 2.67 | E 3.62 | M 2.86 | L 2.53 | D 3.7 | C 2.67 | K 3.92 | A 3.52 | Y 2.81 | G 3.53
S2: T 2.85 | Q 2.55 | N 3.4 | V 2.23 | G 3.58 | R 4.17 | C 2.52 | W 2.33 | I 1.92 | L 2.96 | H 2.47 | D 3.87 | K 3.15 | F 3
E8: M 2.88 | H 3.14 | W 1.96 | K 3.14 | V 3.05 | I 2.87 | N 3.29 | P 3.26 | F 1.91 | D 2.92 | T 3.25 | R 3.13
I11: R 3.37 | G 3.47 | A 3.39 | K 3.25 | Q 3.51 | V 3.25 | H 4.47 | W 3.44 | Y 3.04 | F 3.26 | N 3.55 | L 2.88 | S 3.63 | T 3.69 | P 3.58 | D 3.41
R14: Y 3.17 | A 3.51 | H 4.23 | K 3.52 | T 3.42 | W 3.11 | G 3.7 | L 2.81 | Q 3.48 | P 3.13 | V 3.03 | I 3.03 | C 4.61 | S 3.6
R15: A 3.33 | G 3.91 | H 4.16 | P 3.28 | I 3.32 | L 2.79 | N 3.62 | M 2.96 | T 3.22 | V 3.22 | F 2.96 | Q 3.38 | K 2.91 | S 3.48
A21: K 3.63 | Q 3.29 | I 2.54 | P 3.29 | M 2.46 | F 2.94 | N 3.41 | Y 3.16 | C 3.66 | S 3.23 | G 3.44 | L 2.31 | H 4.06 | V 3.2 | D 3.49
C3: G 3.44 | Y 3.81 | W 2.83 | F 3.12 | N 3.79 | K 3.83 | Q 3.62 | I 3.37 | T 3.99 | D 3.72 | L 3.53
N7: W 2.35 | E 3.19 | G 3.29 | V 3.14 | D 3.31 | M 2.96 | I 2.83 | C 2.42 | L 2.74 | S 3.01 | Q 3.36 | F 2.52 | H 3.88 | K 3.57 | A 2.64 | Y 2.06 | R 3.56 | P 3.55
A5: P 3.12 | N 3.27 | S 3.33 | V 3.03 | H 3.73 | R 2.89 | F 2.79 | I 3.01 | Y 3.05 | G 3.58 | D 3.38
C19: H 3.69 | V 3.27 | R 3.72 | G 3.55 | Q 3.78 | K 3.94 | E 3.84 | P 3.35 | M 3.42 | F 3.17 | T 3.85 | D 4.09 | L 3.14 | Y 3.44
R16: F 2.92 | K 3.62 | E 3.63 | A 3.48 | Q 3.66 | G 3.66 | P 3.24 | C 3.72 | N 3.69 | T 3.96 | S 3.8 | L 2.92 | Y 3 | V 3.32 | W 3.06
K13: L 3.15 | S 3.5 | C 3.56 | D 3.68 | I 3.15 | H 3.44 | Y 2.78 | T 3.2 | N 3.43 | E 3.45 | G 3.16 | V 3.59 | P 3.46
E10: R 3.44 | V 2.66 | G 3.23 | Y 2.39 | H 3.08 | M 2.9 | W 2.22 | K 3.41 | I 2.8 | N 3.41 | P 3.09 | S 3.14 | Q 3.59 | T 3.27 | A 3.27
C9: W 2.54 | Q 3.47 | M 3.59 | Y 2.69 | V 3.46 | K 3.91 | G 3.82 | S 3.66 | P 3.5 | L 3.08 | A 3.39

Reference: the supplement of paper PMC10567573
